One molecule from doi:10.1101/2021.08.07.455519 (bioRxiv, 2021) can be followed below.

This assay addresses BG505 UFO trimer (HIV-1 strain BG505, UniProt Q2N0S6, stabilised). Nature of the assay: BLI. In general terms: BLI is a label-free optical method that tracks binding on a fibre tip over time.

B1: intermediate antibody IA5 of the J038 lineage (antibody, V domains shown)
VH: QLRLQESGPGLVKPSETLSLNCAVSGGSISDAYWSWIRQSPGRGLEWIGRISGRDGYTDYNPSLTSRVTISTDRSKTQVSLRLTSVTAADTAVYFCAREVAEDDYGYYQPYFDSWGQGVLVTVSS
VL: DIQMTQSPSSVSASVGDRVTITCRSSQGIDTDLAWYQHTPGKAPKLLIYHSCGLQSGVPSRFSGSGSGTDFTLTISSLQPEDFATYYCQQYKSLPLTFGGGTKVEVK
For the molecule B1, the binding result was “binds”.
